Assay results reported in patent US20170145104A1 (Bristol-Myers Squibb, published 2017).
Numbering of substitutions follows the chain as printed. In names and notes the source's numbering stands.

T1: human GITR, membrane bound (on activated human T cells and on 3A9-hGITR cells) (human, UniProt Q9Y5U5 26-241)
T1 construct: whole, on cells; the cell is named under assay; also called huGITR; TNFRSF18
T1 sequence (looked up): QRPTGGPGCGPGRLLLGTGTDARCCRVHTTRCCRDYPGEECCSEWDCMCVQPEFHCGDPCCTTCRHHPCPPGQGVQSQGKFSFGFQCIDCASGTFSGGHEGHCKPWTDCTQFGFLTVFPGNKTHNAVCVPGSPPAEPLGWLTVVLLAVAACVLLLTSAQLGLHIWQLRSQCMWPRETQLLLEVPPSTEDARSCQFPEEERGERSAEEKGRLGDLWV

B1: Non mutated 28F3 (control of the VH CDR3 mutant panel) (antibody, V domains shown)
VH: QVQLVESGGGVVQPGRSLRLSCAASGFTFSSYGMHWVRQAPGKGLEWVAVIWYEGSNKYYADSVKGRFTISRDNSKNTLYLQMNSLRAEDTAVYYCARGGSMVRGDYYYGMDVWGQGTTVTVSS
VL: AIQLTQSPSSLSASVGDRVTITCRASQGISSALAWYQQKPGKAPKLLIYDASSLESGVPSRFSGSGSGTDFTLTISSLQPEDFATYYCQQFNSYPYTFGQGTKLEIK
notes: also called H6
B2: 28F3 VH CDR3 mutant M98L, D106E (antibody, V domains shown)
VH: B1 VH with M102L, D106E
VL: B1 VL
notes: also called B5
B3: 28F3 VH CDR3 mutant M98I, D106E (antibody, V domains shown)
VH: B1 VH with M102I, D106E
VL: B1 VL
notes: also called C5; M98I/D160E
B4: 28F3 VH CDR3 mutant M98L (antibody, V domains shown)
VH: B1 VH with M102L
VL: B1 VL
notes: also called B6
B5: 28F3 VH CDR3 mutant M98I (antibody, V domains shown)
VH: B1 VH with M102I
VL: B1 VL
notes: also called C6
B6: 28F3 VH CDR3 mutant M98F, D106E (antibody, V domains shown)
VH: B1 VH with M102F, D106E
VL: B1 VL
notes: also called A5
B7: 28F3 VH CDR3 mutant M98L, D106E, M111F (antibody, V domains shown)
VH: B1 VH with M102L, D106E, M111F
VL: B1 VL
notes: also called C4
B8: 28F3 VH CDR3 mutant M98F, D106E, M111F (antibody, V domains shown)
VH: B1 VH with M102F, D106E, M111F
VL: B1 VL
notes: also called B4
B9: 28F3 VH CDR3 mutant M98A, D106E (antibody, V domains shown)
VH: B1 VH with M102A, D106E
VL: B1 VL
notes: also called F5
B10: 28F3 VH CDR3 mutant M98A, D106E, M111F (antibody, V domains shown)
VH: B1 VH with M102A, D106E, M111F
VL: B1 VL
notes: also called F4
B11: 28F3 VH CDR3 mutant M98A (antibody, V domains shown)
VH: B1 VH with M102A
VL: B1 VL
notes: also called F6
B12: 28F3 VH CDR3 mutant M98F (antibody, V domains shown)
VH: B1 VH with M102F
VL: B1 VL
notes: also called A6
B13: 28F3 VH CDR3 mutant M98V, M111F (antibody, V domains shown)
VH: B1 VH with M102V, M111F
VL: B1 VL
notes: also called A2
B14: 28F3 VH CDR3 mutant M98A, D106E, M111L (antibody, V domains shown)
VH: B1 VH with M102A, D106E, M111L
VL: B1 VL
notes: also called G3
B15: 28F3 VH CDR3 mutant M98Q, M111L (antibody, V domains shown)
VH: B1 VH with M102Q, M111L
VL: B1 VL
notes: also called E1
B16: 28F3 VH CDR3 mutant M98L, M111F (antibody, V domains shown)
VH: B1 VH with M102L, M111F
VL: B1 VL
notes: also called C2
B17: 28F3 VH CDR3 mutant M98A, M111L (antibody, V domains shown)
VH: B1 VH with M102A, M111L
VL: B1 VL
notes: also called G1
B18: 28F3 VH CDR3 mutant M98V, D106E, M111L (antibody, V domains shown)
VH: B1 VH with M102V, D106E, M111L
VL: B1 VL
notes: also called A3
B19: 28F3 VH CDR3 mutant M98F, D106E, M111L (antibody, V domains shown)
VH: B1 VH with M102F, D106E, M111L
VL: B1 VL
notes: also called B3
B20: 28F3 VH CDR3 mutant M98S, M111F (antibody, V domains shown)
VH: B1 VH with M102S, M111F
VL: B1 VL
notes: also called F2
B21: 28F3 VH CDR3 mutant M98Y, D106E, M111L (antibody, V domains shown)
VH: B1 VH with M102Y, D106E, M111L
VL: B1 VL
notes: also called H3
B22: 28F3 VH CDR3 mutant M98Q, D106E, M111L (antibody, V domains shown)
VH: B1 VH with M102Q, D106E, M111L
VL: B1 VL
notes: also called E3
B23: 28F3 VH CDR3 mutant M98Q, M111F (antibody, V domains shown)
VH: B1 VH with M102Q, M111F
VL: B1 VL
notes: also called E2
B24: 28F3 VH CDR3 mutant M98Y, M111F (antibody, V domains shown)
VH: B1 VH with M102Y, M111F
VL: B1 VL
notes: also called H2
B25: 28F3 VH CDR3 mutant M98V, M111L (antibody, V domains shown)
VH: B1 VH with M102V, M111L
VL: B1 VL
notes: also called A1
B26: 28F3 VH CDR3 mutant M98I, M111F (antibody, V domains shown)
VH: B1 VH with M102I, M111F
VL: B1 VL
notes: also called D2
B27: 28F3 VH CDR3 mutant M98I, D106E, M111L (antibody, V domains shown)
VH: B1 VH with M102I, D106E, M111L
VL: B1 VL
notes: also called D3
B28: 28F3 VH CDR3 mutant M98A, M111F (antibody, V domains shown)
VH: B1 VH with M102A, M111F
VL: B1 VL
notes: also called G2
B29: 28F3 VH CDR3 mutant M98F, M111L (antibody, V domains shown)
VH: B1 VH with M102F, M111L
VL: B1 VL
notes: also called B1
B30: 28F3 VH CDR3 mutant M98L, M111L (antibody, V domains shown)
VH: B1 VH with M102L, M111L
VL: B1 VL
notes: also called C1
B31: 28F3 VH CDR3 mutant M98S, D106E, M111L (antibody, V domains shown)
VH: B1 VH with M102S, D106E, M111L
VL: B1 VL
B32: 28F3 VH CDR3 mutant M98S, M111L (antibody, V domains shown)
VH: B1 VH with M102S, M111L
VL: B1 VL
notes: also called F1
B33: 28F3 VH CDR3 mutant M98I, M111L (antibody, V domains shown)
VH: B1 VH with M102I, M111L
VL: B1 VL
notes: also called D1
B34: 28F3 VH CDR3 mutant M98Y, M111L (antibody, V domains shown)
VH: B1 VH with M102Y, M111L
VL: B1 VL
notes: also called H1
B35: 28F3 VH CDR3 mutant M98L, D106E, M111L (antibody, V domains shown)
VH: B1 VH with M102L, D106E, M111L
VL: B1 VL
notes: also called C3

What follows are binders tested against T1, human GITR, membrane bound (on …) (assay: FACS binding to 3A9-hGITR transfectant, Geo-MFI (PE); EC50 table beside the curves; unit from the axis).
In the case of B1, the EC50 is reported as 0.334 nM. In the case of B2, the EC50 is reported as 0.311 nM. B3 showed an EC50 of 0.349 nM. B4 showed an EC50 of 0.757 nM. For B5, the EC50 was 1.42 nM. Work on B6 yielded an EC50 of 0.683 nM. In the case of B7, the EC50 is reported as 0.638 nM. B8 showed an EC50 of 54 nM. In the case of B9, the EC50 is reported as 0.401 nM. With B10 the EC50 was 19.1 nM. In the case of B11, the EC50 is reported as 1.5 nM. For B12, the EC50 was 0.797 nM.

Target: T1, human GITR, membrane bound (on …)
Test: as above
Remark: another data set of the same source
Binder B13 has an EC50 of 3.7 nM. B14 was tested, and the EC50 was 62 nM. B15 was tested, and the EC50 was 21.7 nM. B16 gave an EC50 of 1.38 nM. B17 showed an EC50 of 187 nM. In the case of B18, the EC50 is reported as 2.87 nM. Work on B19 yielded an EC50 of 417 nM. B20 gave an EC50 of 246 nM. B21 was tested, and the EC50 was 183 nM. Binder B22 has an EC50 of 20.4 nM. Binder B23 has an EC50 of 16.6 nM. B24 was tested, and the EC50 was 246 nM. B25 gave an EC50 of 3.53 nM. For B26, the EC50 was 1.33 nM. B27 gave an EC50 of 1.07 nM. B28 was tested, and the EC50 was 171 nM. B29 showed an EC50 of 51.8 nM. In the case of B30, the EC50 is reported as 0.674 nM. B31 was tested, and the EC50 was ~1250 nM. Work on B32 yielded an EC50 of 60.3 nM. B33 gave an EC50 of 1.03 nM. Binder B34 has an EC50 of 620 nM. In the case of B35, the EC50 is reported as 1.22 nM.
